In article PMC4974525:

Molecular target: African cassava mosaic virus (ACMV) capsid protein expressed in fission yeast (African cassava mosaic virus (ACMV-[Nigeria-Ogo]))
Assay: SDS-PAGE with Western blot

Q: With “African cassava mosaic virus (ACMV) capsid protein expressed in fission yeast (natural protein)” as the substance, how does the stoichiometry N read?
A: Its stoichiometry N is 2.
